Reference: publication PMC8093215 (Nature Communications, 2021)
Read-outs that look alike come from different tables or passages of the source. No end group written: not given here. trimethyl = trimethyl-lysine; dimethyl = dimethyl-lysine

T1: bovine DNMT1 BAH1 domain (residues 725–897, residues 838–858 replaced by GAGSA) (bovine, UniProt Q24K09 725-837; Q24K09 859-897)
T1 construct: bovine DNMT1 BAH1 domain, residues 725-837; linker that replaces residues 838-858 to facilitate crystallization; bovine DNMT1 BAH1 domain, residues 859-897; the last two beta-strands were domain-swapped during crystallization; also called bDNMT1_(BAH1); source: E. coli BL21(DE3) RIL, purified (Ni, ULP1 cleavage, Q XL, Ni, SEC); not shown: His6-SUMO, N-terminal, cleaved
T1 chain: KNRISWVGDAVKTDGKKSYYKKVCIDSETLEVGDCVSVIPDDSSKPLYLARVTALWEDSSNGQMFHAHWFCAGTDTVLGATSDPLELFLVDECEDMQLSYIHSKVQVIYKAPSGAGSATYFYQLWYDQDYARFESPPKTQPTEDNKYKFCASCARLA

T2: human ORC1 BAH domain (residues 1-185) (human, UniProt Q13415 1-185)
T2 construct: human origin recognition complex subunit 1 (ORC1), BAH domain, residues 1-185
T2 sequence (looked up): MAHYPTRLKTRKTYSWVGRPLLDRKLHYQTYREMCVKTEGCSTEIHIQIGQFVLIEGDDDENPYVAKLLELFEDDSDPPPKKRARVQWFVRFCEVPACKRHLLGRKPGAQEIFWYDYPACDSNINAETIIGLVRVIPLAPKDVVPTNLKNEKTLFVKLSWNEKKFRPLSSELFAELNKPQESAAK


Legend:
[1] = molecular target: T3, human DNMT1 BAH1 domain, wild type, His6-MBP construct used for the autoinhibitory linker binding (human, UniProt P26358 728-900); experiment: ITC; hDNMT1 BAH1 domain (WT, W796A or Mut^YW) with the autoinhibitory linker peptide hDNMT1(714-727); 5 °C; single-site binding mode; details: both partners purified
T3 construct: numbering on isoform 1 of 1616 amino acids; also called hDNMT1_(BAH1), WT; source: E. coli BL21(DE3) RIL, purified (Ni, ion exchange, TEV cleavage, Ni, SEC)
T3 sequence (P26358 728-900): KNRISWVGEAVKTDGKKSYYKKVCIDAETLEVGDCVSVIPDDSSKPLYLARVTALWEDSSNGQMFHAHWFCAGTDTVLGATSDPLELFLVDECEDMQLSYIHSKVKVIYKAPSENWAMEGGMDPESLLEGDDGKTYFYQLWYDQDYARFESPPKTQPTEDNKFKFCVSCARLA

[2] = molecular target: T1, bovine DNMT1 BAH1 domain (residues …); experiment: crystal structure; bDNMT1 BAH1 mixed with peptide 1:3; hanging drop, 13% PEG1500, 20 mM DTT, 200 mM L-proline, 4 °C; HEPES pH 7.5 (K20me3) or MES pH 6.5 (K20me2); details: both partners purified
[3] = molecular target: T2, human ORC1 BAH domain (residues 1-185); experiment: ITC; 0.45 mM H4K20me2 peptide titrated over 64 µM ORC1 BAH domain; 20 mM Tris-HCl pH 7.5, 100 mM NaCl, 1 mM DTT; 5 °C; single-site binding mode; details: both partners purified
[4] = molecular target: T4, human DNMT1 BAH1 domain (residues 728-900), D768A (human, UniProt P26358 728-900, D768A); experiment: ITC; 1 mM H4K20me peptide titrated over 0.1 mM hDNMT1 BAH1 or BAH2 domain; 25 mM Tris-HCl pH 7.5, 100 mM NaCl, 2 mM DTT; 5 °C; single-site binding mode; details: both partners purified
T4 construct: numbering on isoform 1 of 1616 amino acids; also called hDNMT1_(BAH1), D768A; source: E. coli BL21(DE3) RIL, purified as the wild-type protein; not shown: His6-SUMO, N-terminal, cleaved
T4 sequence (P26358 728-900 D768A): as the sequence (P26358 728-900) above, with D41A counted along it

[5] = molecular target: T5, human DNMT1 BAH1 domain (residues 728-900), E821A (human, UniProt P26358 728-900, E821A); experiment: as above; details: both partners purified
T5 construct: numbering on isoform 1 of 1616 amino acids; also called hDNMT1_(BAH1), E821A; source: E. coli BL21(DE3) RIL, purified as the wild-type protein; not shown: His6-SUMO, N-terminal, cleaved
T5 sequence (P26358 728-900 E821A): as the sequence (P26358 728-900) above, with E94A counted along it

[6] = molecular target: T6, human DNMT1 BAH1 domain (residues 728-900), E819A (human, UniProt P26358 728-900, E819A); experiment: as above; details: both partners purified
T6 construct: numbering on isoform 1 of 1616 amino acids; also called hDNMT1_(BAH1), E819A; source: E. coli BL21(DE3) RIL, purified as the wild-type protein; not shown: His6-SUMO, N-terminal, cleaved
T6 sequence (P26358 728-900 E819A): as the sequence (P26358 728-900) above, with E92A counted along it

[7] = molecular target: T7, MBP-tagged human DNMT1 residues 351-1600, M718A/H719A/K723A/K724A/K725A/Q726A (Mut^linker) (human, UniProt P26358 351-1600, M718A | H719A | K723A | K724A | K725A | Q726A); experiment: ITC
T7 construct: numbering on isoform 1 of 1616 amino acids; also called MBP-Mut^linker; source: E. coli BL21(DE3) RIL, purified
T7 sequence (P26358 351-1600 M718A/H719A/K723A/K724A/K725A/Q726A): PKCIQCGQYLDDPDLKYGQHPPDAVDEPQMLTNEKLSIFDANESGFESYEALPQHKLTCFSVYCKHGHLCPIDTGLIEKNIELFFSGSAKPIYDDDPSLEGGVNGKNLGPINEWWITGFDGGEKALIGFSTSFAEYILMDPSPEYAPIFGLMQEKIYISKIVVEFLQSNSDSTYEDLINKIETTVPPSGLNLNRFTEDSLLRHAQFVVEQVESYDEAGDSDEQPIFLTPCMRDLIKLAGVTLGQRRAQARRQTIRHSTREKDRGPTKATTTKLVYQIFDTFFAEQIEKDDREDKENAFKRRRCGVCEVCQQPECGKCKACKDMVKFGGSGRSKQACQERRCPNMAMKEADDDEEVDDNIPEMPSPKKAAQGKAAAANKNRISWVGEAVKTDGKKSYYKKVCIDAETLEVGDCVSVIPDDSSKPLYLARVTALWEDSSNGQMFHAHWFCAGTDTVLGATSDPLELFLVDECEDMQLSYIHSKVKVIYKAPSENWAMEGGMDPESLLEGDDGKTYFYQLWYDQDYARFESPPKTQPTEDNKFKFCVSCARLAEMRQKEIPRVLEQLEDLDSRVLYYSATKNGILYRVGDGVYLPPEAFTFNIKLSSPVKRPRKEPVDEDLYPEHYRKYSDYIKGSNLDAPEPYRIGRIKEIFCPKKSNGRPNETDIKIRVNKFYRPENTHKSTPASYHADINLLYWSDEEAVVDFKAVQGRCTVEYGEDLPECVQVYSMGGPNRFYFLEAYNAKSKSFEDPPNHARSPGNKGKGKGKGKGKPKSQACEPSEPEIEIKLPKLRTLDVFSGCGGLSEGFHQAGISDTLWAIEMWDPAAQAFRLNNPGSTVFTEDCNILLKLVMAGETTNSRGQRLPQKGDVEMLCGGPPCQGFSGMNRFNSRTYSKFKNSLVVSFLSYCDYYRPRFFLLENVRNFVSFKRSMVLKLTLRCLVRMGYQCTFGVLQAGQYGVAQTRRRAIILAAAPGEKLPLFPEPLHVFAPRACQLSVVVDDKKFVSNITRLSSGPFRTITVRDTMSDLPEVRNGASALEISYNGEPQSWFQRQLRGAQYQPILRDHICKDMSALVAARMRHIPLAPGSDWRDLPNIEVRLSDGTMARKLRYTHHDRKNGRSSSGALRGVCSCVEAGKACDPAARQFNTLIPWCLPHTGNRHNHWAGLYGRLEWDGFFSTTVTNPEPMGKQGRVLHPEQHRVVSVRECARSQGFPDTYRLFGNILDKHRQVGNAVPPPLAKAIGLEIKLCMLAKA

[8] = molecular target: T7, MBP-tagged human DNMT1 residues …; experiment: ITC; remark: listed apart in the source
[9] = molecular target: T8, hDNMT1 BAH1 domain from the His6-MBP vector (human, UniProt P26358 728-900); experiment: ITC; hDNMT1 BAH1 (WT, W796A or Mut^YW) with the autoinhibitory linker peptide hDNMT1(714-727); 5 °C; single-site fit; details: both partners purified
T8 construct: numbering on isoform 1 of DNMT1 with 1616 amino acids; also called WT; source: E. coli BL21(DE3) RIL, purified (Ni, ion exchange, TEV cleavage, Ni, SEC); not shown: His6-MBP, N-terminal, cleaved
T8 sequence (P26358 728-900): as the sequence (P26358 728-900) above

Row | Binder | binding result [2] | Kd [4] | stoichiometry N [4] | Kd [5] | stoichiometry N [5] | Kd [6] | stoichiometry N [6] | further results
1 | SPKKMHQGKKKKQNY (numbering on isoform 1 of 1616 amino acids; additional C-terminal tyrosine for spectroscopic quantification; source: synthetic peptide (LifeTein)) [hDNMT1(714-727) autoinhibitory linker peptide] |  |  |  |  |  |  |  | stoichiometry N [1]: 1
2 | GAKRHRK(dimethyl)VLRDNY (histone H4, residues 14-25; additional C-terminal tyrosine for spectroscopic quantification; source: synthetic peptide (LifeTein)) [H4(14-25)K20me2 peptide] |  | 9.3 µM | 0.92 | 35.4 µM | 0.83 | 12.3 µM | 0.87 | Kd [3]: 8.7 µM; stoichiometry N [3]: 0.75
3 | SPKKMHQGKKKKQNY (numbering on isoform 1 of DNMT1 with 1616 amino acids; additional C-terminal tyrosine for spectroscopic quantification; source: synthetic peptide (LifeTein)) [autoinhibitory linker peptide hDNMT1(714–727)] |  |  |  |  |  |  |  | Kd [9]: ~70 µM

More lines, main results first:

Row | binding result [2] | Kd [4] | stoichiometry N [4] | Kd [5] | stoichiometry N [5] | Kd [6] | stoichiometry N [6] | Binder | further results
4 | binds |  |  |  |  |  |  | GAKRHRK(trimethyl)VLRDNY (histone H4, residues 14-25; additional C-terminal tyrosine for spectroscopic quantification; also called H4K20me3 peptide; source: synthetic peptide (LifeTein)) [H4(14–25)K20me3 peptide] | 
5 | binds |  |  |  |  |  |  | GAKRHRK(dimethyl)VLRDNY (histone H4, residues 14-25; additional C-terminal tyrosine for spectroscopic quantification; also called H4K20me2 peptide; source: synthetic peptide (LifeTein)) [H4(14–25)K20me2 peptide] | 
6 |  | 11.5 µM | 0.82 | 91.7 µM | 0.88 | 9.4 µM | 0.73 | GAKRHRKVLRDNY (trimethyl-lysine at K20, histone H4, residues 14-25; additional C-terminal tyrosine for spectroscopic quantification; also called H4K20me3 peptide; source: synthetic peptide (LifeTein)) [H4(14-25)K20me3 peptide] | Kd [7]: 131 µM; Kd [8]: 122 µM; stoichiometry N [8]: 1.45
